From PMC5291249 come the findings set out here.

Holding throughout (experiment): cross-linking; glutaraldehyde cross-linking (0.01-0.5%, 0.025% chosen as optimal) of recombinant p53 in solution without DNA, 25°C, Tris or HEPES buffer pH 7.5, 100 mM NaCl, then 4-12% MOPS SDS-PAGE (coomassie, silver stain or immunoblot)
Assay [1] deals with murine p53 mutant with the double substitution M340Q/L344R (murine) (UniProt P02340).
In assay [2] the target is recombinant murine p53 (murine) (UniProt P02340).
The target is the same in assay [3]. This is another data set of the same source.

Values joined by “and” are separate entries in the source; they are usually repeats but may differ in a detail not shown here. Identical values can stand only once. Like-named read-outs stand apart in the source and are kept apart here.

On to “murine p53 mutant with the double substitution M340Q/L344R (from UniProt P02340 1-390) (natural protein)”, for which, in assay [1], the stoichiometry N is 2 and 4. Take “recombinant murine p53 (from UniProt P02340 1-390) (natural protein)”: the values for the stoichiometry N in assay [2] and in assay [3] were 4 and 8, respectively.
